This is an account of results in US5756291.

Where two headings read alike, the source gives them in different places.

The target in data set [1] is thrombin (alpha, Factor IIa) (Homo sapiens) (UniProt P00734+P00734). Nature of the data set: filter.
For a further data set, the target named is kallikrein (UniProt P03952+P03952). Nature of the data set: filter. The conditions noted are these: ~1 uM protein.
Sequence of kallikrein (P03952 20-390, chain 1 of 2): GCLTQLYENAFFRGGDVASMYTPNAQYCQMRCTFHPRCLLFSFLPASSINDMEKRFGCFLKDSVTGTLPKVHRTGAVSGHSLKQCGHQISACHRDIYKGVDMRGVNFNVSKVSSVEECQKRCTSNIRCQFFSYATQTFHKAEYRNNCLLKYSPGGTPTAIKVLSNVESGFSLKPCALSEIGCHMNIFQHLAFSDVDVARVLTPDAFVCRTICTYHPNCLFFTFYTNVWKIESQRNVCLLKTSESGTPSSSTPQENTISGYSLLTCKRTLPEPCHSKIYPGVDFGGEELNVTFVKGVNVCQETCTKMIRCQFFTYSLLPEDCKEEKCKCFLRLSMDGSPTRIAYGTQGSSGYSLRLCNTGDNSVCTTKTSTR
Sequence of kallikrein (P03952 391-638, chain 2 of 2): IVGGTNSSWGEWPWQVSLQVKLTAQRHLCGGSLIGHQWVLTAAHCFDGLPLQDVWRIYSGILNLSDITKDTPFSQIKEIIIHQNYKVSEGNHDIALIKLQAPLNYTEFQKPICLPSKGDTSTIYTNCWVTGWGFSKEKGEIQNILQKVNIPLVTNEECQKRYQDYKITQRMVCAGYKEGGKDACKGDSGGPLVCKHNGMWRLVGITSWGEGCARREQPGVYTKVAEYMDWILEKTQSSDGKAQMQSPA

Usually Kd stands for the free concentration of one partner at which half of the binding sites on the other are occupied at equilibrium, for simple one-to-one binding. Consider “TAGAATACTCAAGCTTCGACGNNNNNNNNNNNNNNNNNNNNAGTTTGGATCCCCGGGTAC [pentynyl-dU Round 6 pool]”, for which, in data set [1] (5-(1-pentynyl)-dU replacing T in amplified region), the Kd amounted to 0.4 µM.
Sequence “CGGGGAGAGGTTGGTGTGGTTGGCAATGGCTAGAGTAGTGACGTTTTCGCGGTGAGGTCC” displayed a binding signal with kallikrein of less than 0.5 % bound.
Regarding “TAGAATACTCAAGCTTCGACGNNNNNNNNNNNNNNNNNNNNAGTTTGGATCCCCGGGTAC [Round 6 pool prepared with thymidine]”, the Kd in data set [1] is greater than 10 µM.
In data set [1] (5-(1-pentynyl)-dU replacing T in amplified region, unit micro sign lost in print), “TAGAATACTCAAGCTTCGACGNNNNNNNNNNNNNNNNNNNNAGTTTGGATCCCCGGGTAC [unselected pentynyl-dU pool]” yielded a Kd greater than 10 µM.
